Results on one molecule are retold here after paper PMC13061415, “A structural code for assembly specificity in GID/CTLH-type E3 ligases” (eLife, 2026).

Holding throughout (settings): both partners purified
One test deals with T1, Wdr26 (102–641) (mouse, UniProt Q8C6G8 102-641).
T1 construct: Wdr26, mouse, residues 102-641; also called dimeric Wdr26; (near) full-length Wdr26; source: E. coli BL21 CodonPlus (DE3) RIL, purified as described previously (van gen Hassend et al., 2023)
T1 sequence (looked up): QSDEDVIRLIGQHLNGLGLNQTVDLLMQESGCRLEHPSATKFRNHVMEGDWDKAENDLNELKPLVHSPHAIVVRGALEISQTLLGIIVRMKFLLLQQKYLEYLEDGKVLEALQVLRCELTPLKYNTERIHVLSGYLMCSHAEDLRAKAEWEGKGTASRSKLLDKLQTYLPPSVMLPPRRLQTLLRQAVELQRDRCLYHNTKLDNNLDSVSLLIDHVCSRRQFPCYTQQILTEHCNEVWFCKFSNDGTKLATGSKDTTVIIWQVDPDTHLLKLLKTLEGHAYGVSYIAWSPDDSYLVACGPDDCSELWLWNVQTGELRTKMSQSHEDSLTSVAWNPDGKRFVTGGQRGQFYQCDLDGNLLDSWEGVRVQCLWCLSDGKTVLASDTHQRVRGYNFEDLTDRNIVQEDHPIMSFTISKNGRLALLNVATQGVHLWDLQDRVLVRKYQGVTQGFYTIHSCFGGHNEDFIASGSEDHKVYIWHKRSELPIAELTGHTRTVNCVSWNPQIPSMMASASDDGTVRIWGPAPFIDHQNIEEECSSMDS
Nature of the test: ITC; Twa1_52 CTLH-CRA (192 μM, syringe) titrated into muskelin (1–735) or Wdr26 (102–641) (19 μM, cell); 25°C; 20 mM tricine pH 8.0, 500 mM NaCl, 1 mM TCEP; one-site model. (In general: In ITC the heat of successive injections is recorded.)

The target in another test is T2, muskelin (1–735) (rat, UniProt Q99PV3 1-735).
T2 construct: muskelin, rat, residues 1-735; also called full-length muskelin; tetrameric muskelin; source: E. coli BL21 CodonPlus (DE3) RIL, purified as described previously (van gen Hassend et al., 2023)
T2 sequence (Q99PV3 whole entry, the tested form may be a part): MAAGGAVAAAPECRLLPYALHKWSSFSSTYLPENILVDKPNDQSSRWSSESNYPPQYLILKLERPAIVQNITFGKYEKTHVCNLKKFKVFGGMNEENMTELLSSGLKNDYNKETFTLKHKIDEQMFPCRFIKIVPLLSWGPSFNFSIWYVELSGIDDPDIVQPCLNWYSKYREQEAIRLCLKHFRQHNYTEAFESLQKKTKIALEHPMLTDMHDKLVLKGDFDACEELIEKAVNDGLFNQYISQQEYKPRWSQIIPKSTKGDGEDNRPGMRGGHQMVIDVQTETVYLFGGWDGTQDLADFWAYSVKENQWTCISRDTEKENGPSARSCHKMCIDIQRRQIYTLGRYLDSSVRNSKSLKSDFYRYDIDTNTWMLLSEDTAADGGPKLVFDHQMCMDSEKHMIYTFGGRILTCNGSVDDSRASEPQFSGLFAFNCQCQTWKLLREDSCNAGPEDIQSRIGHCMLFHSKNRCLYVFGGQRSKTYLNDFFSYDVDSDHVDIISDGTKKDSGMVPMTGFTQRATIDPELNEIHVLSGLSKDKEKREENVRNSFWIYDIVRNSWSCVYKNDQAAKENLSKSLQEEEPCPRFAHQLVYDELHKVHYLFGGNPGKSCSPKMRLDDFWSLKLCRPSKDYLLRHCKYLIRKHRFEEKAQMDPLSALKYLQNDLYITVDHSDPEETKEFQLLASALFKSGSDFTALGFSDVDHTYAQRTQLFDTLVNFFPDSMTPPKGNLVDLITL
The test is described as above.

The target of test [1] is T3, Wdr26 CTLH-CRA domain (136-278) (mouse, UniProt Q8C6G8 136-278).
T3 construct: Wdr26, mouse, residues 136-278; Could not be purified on its own; source: E. coli BL21 CodonPlus (DE3) RIL, co-expressed with tagless Twa1_52, complex purified (Ni-IDA, 3C cleavage, SEC); not shown: His6, N-terminal, cleaved
T3 sequence (looked up): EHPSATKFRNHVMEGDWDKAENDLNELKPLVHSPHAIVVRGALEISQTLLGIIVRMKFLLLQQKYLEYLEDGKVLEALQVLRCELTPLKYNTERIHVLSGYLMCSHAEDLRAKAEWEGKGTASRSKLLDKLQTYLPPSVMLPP
Nature of the test: SEC-MALS; CTLH-CRA domain complexes co-expressed in E. coli and purified as complexes; Superdex 75 10/300 GL; 20 mM tricine pH 8.0, 500 mM NaCl, 1 mM TCEP. In general terms: In gel filtration, larger molecules generally elute earlier.

For test [2], the target named is muskelin CTLH-CRA domain co-expressed with Twa1_52 (rat). Described as above.
Chain of muskelin CTLH-CRA domain co-expressed with Twa1_52 (rat) (chain, as listed by the source): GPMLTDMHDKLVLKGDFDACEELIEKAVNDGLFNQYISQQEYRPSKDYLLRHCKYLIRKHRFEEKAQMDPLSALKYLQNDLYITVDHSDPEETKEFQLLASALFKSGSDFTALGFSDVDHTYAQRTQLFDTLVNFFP
Test [3] addresses T4, muskelin CTLH-CRA domain (205–735 Δ248–625) (rat, UniProt Q99PV3 205-735, Δ248–625).
T4 construct: muskelin, rat, fusion of the CTLH motif and the C-terminus (CRA^N-like): residues 205-735 with 248-625 deleted; also called muskelin wt; CTLH-Ct construct; source: E. coli BL21 CodonPlus (DE3) RIL, purified as described previously (van gen Hassend et al., 2023)
As to the kind of experiment: ITC; muskelin CTLH-CRA (160 μM, syringe) titrated into RanBP10 or Twa1 CTLH-CRA variants (16 μM, cell); 25°C; 20 mM tricine pH 8.0, 500 mM NaCl, 1 mM TCEP; one-site model.

T4 sequence (Q99PV3 other isoform, or with tags, fused parts or gaps Δ248–625 | Δ248–625 | mutant): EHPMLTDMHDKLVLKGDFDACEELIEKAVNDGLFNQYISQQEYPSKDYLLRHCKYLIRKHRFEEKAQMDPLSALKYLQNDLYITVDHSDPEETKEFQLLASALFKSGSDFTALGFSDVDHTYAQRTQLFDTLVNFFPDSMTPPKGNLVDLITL

B1: Twa1_52 mutant (A125G, Q126R, Δ127T, L140K, E144K, L147F, F152Y, F160V), CTLH-CRA domain (domain or fragment, mouse, UniProt Q9D7M1 58-190, looked up)
chain: SVDLETLDERIKIREMILKGQIQEAIALINSLHPELLDTNRYLYFHLQQQHLIELIRQRETEAALEFGRQLAEQGEESRECKTEMKRTFALLAYDSPEESPVGDLLHMMQRQKVWSEVNQAVLDYENRESTP
notes: Twa1, mouse, CTLH-CRA domain 58-190 with eight changes; source: E. coli BL21 CodonPlus (DE3) RIL, purified (Ni-IDA, 3C cleavage, SEC); also tagless, co-expressed with muskelin or Wdr26 CTLH-CRA domain; not shown: His6, N-terminal, cleaved
As to B1, the results for the Kd (with Wdr26 (102–641); in the test with muskelin (1–735); in test [3]) were 15.9 nM, 17.9 nM and 146 nM, respectively. Further, the “stoichiometry N” value in test [1] and in test [2] was 1 each time.

A word on the Kd: it is the free concentration of one partner at which half of the binding sites on the other are occupied at equilibrium, for simple one-to-one binding. By stoichiometry N is commonly meant a count of units in the complex or per binding partner.
